The values below come from article PMC7736295 (Cell Discovery, 2020).

The chains are these.
T1: Mint1-CID (residues 338-397) I352A I355A I359A (UniProt O35430 338-397, I352A | I355A | I359A)
T1 sequence: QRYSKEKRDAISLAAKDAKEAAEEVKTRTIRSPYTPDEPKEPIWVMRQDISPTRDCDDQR

T2: CASK-CaMK (residues 1-337) (UniProt Q62915 1-337)
T2 construct: CaMK domain of CASK, residues 1-337; also called CASK(residues 1-337); source: E. coli BL21 (DE3), purified (Ni2+-Sepharose, size-exclusion chromatography); not shown: Trx, N-terminal, cleaved; His6, N-terminal, cleaved
T2 sequence (looked up): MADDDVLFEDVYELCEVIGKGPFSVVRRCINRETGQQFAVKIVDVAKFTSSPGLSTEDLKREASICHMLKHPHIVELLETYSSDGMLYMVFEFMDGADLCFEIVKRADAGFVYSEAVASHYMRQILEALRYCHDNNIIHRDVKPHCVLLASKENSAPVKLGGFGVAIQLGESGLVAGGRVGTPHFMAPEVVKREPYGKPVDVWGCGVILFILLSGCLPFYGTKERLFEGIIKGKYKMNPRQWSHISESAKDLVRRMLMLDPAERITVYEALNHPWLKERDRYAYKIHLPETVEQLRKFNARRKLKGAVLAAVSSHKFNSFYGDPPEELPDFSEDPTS

T3: CASK-CaMK (residues 1-301) (UniProt Q62915 1-301)
T3 chain: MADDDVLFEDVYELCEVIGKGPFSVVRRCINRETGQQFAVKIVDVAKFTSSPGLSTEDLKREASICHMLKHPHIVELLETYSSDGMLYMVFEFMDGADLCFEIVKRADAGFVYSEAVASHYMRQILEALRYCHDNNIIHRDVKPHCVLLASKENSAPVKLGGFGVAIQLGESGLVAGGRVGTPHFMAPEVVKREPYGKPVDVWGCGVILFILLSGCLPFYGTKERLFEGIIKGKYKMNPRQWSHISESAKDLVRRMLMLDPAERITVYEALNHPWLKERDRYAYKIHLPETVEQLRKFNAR

T4: CASK-CaMK (residues 1-319) (UniProt Q62915 1-319)
T4 chain: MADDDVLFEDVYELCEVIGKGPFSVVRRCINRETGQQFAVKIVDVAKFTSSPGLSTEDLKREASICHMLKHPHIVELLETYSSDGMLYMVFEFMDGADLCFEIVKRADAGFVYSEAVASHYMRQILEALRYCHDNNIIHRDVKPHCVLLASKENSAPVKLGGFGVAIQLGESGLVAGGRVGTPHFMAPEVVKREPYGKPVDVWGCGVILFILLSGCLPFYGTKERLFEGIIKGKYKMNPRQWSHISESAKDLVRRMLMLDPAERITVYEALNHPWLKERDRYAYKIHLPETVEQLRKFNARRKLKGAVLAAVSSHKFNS

B1: CASK-CaMK (residues 1-337) (domain or fragment)
chain: T2 sequence (looked up)
B2: Mint1-CID (residues 338-397) (domain or fragment, UniProt O35430 338-397, looked up)
chain: T1 sequence with A15I, A18I, A22I
notes: also called the entire CID; the whole CID; source: E. coli BL21 (DE3), purified (Ni2+-Sepharose, size-exclusion chromatography); not shown: Trx, N-terminal, cleaved; His6, N-terminal, cleaved
B3: Mint1-CID (residues 338-397) I352A I355A I359A (domain or fragment, UniProt O35430 338-397, looked up)
chain: T1 sequence
notes: Mint1-CID residues 338-397 with I352A, I355A and I359A; Probably made as the wild-type fragment (E. coli, Trx-His6 tag removed); also called the mutations in the N-CID; source: recombinant protein
B4: Mint1-CID (residues 338-397) W381A (domain or fragment, UniProt O35430 338-397, looked up)
chain: T1 sequence with A15I, A18I, A22I, W44A
notes: Mint1-CID residues 338-397 with W381A; Probably made as the wild-type fragment (E. coli, Trx-His6 tag removed); also called the C-CID W381A mutation; source: recombinant protein
B5: Mint1-C-CID (residues 371-397) (domain or fragment, UniProt O35430 371-397, looked up)
chain: YTPDEPKEPIWVMRQDISPTRDCDDQR
notes: C-terminal half of the CID of Mint1, residues 371-397; source: E. coli BL21 (DE3), purified (Ni2+-Sepharose, size-exclusion chromatography); not shown: Trx, N-terminal, cleaved; His6, N-terminal, cleaved

Residue numbers refer to the chain shown, from its start. Names and notes keep the numbering of the source.

The target of assay [1] is T1, Mint1-CID (residues 338-397) I352A …. The assay can be described thus: ITC.
In assay [2] the target is T2, CASK-CaMK (residues 1-337). The assay can be described thus: ITC; MicroCalorimeter ITC200, 25 °C; Mint1 fragments and mutants injected into CASK-CaMK in the cell; repeated three times. Conditions: both partners purified.
Assay [3] concerns the target T3, CASK-CaMK (residues 1-301). As to the kind of experiment: ITC.
The target of assay [4] is T4, CASK-CaMK (residues 1-319). The assay can be described thus: ITC. (In general: ITC needs no label: the signal is the heat of the interaction.)
Assay [5] addresses B1. As to the kind of experiment: ITC.

In the case of B1, the Kd in assay [1] came to 270 nM. This counts as sub-micromolar. With B2, the dissociation constant (Kd) in assay [2] is about 20 nM; in assay [3], 42 nM; in assay [4], 30 nM; in assay [5] it was 17 nM. On to B3, for which the “fold reduction of the binding affinity against the wild-type CID” value in assay [2] is about 15 fold.

B4: in assay [2], the Kd was about 55000 nM.

With B5, the Kd in assay [2] is about 500 nM.

As usually defined, the Kd is the concentration at which binding is half-saturated. Read a high Kd as a looser complex.
